Data on five molecules can be found in paper PMC5855135 (Chemical Science, 2017).

The target in data set [1] is T1, CcpA (SaCcpA) (Staphylococcus aureus Newman) (UniProt P99175).
T1 sequence: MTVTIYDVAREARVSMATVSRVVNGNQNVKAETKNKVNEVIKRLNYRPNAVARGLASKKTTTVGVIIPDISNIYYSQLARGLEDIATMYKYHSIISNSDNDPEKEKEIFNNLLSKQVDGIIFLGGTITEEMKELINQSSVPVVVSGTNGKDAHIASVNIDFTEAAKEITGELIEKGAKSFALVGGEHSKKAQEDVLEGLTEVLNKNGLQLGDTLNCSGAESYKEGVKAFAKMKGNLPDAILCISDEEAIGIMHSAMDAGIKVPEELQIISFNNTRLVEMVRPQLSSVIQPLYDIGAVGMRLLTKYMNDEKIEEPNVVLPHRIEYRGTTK
The data set can be described thus: EMSA. The settings on record: BLI: 25 mM Tris-HNO3, 80 mM NaNO3, 35 mM KNO3, 10 mM Mg(NO3)2, 0.1% Triton X-100, 10% glycerol, 0.1% BSA, 0.01% Tween 20, pH 7.5, 37 C; EMSA: 35 nM DNA in …. (Mobility shift assays separate free from complexed probe on a gel.)

In data set [2] the test system is CcpA2CS (Staphylococcus aureus Newman). The data set can be described thus: BLI. The settings on record: BLI: 25 mM Tris-HNO3, 80 mM NaNO3, 35 mM KNO3, 10 mM Mg(NO3)2, 0.1% Triton X-100, 10% glycerol, 0.1% BSA, 0.01% Tween 20, pH 7.5, 37 C; EMSA: 35 nM DNA in ….
Data set [3] deals with CcpA (SaCcpA) (Staphylococcus aureus Newman). The data set is described as follows: BLI. Particulars: no Ag+; 10 mM Mg2+; BLI: 25 mM Tris-HNO3, 80 mM NaNO3, 35 mM KNO3, 10 mM Mg(NO3)2, 0.1% Triton X-100, 10% glycerol, 0.1% BSA, 0.01% Tween 20, pH 7.5, 37 C; EMSA: 35 nM DNA in ….
Data set [4] has as its system CcpA2CS (Staphylococcus aureus Newman). The data set can be described thus: BLI. The settings on record: BLI: 25 mM Tris-HNO3, 80 mM NaNO3, 35 mM KNO3, 10 mM Mg(NO3)2, 0.1% Triton X-100, 10% glycerol, 0.1% BSA, 0.01% Tween 20, pH 7.5, 37 C; EMSA: 35 nM DNA in …. This is another data set of the same source.
Data set [5] concerns the molecule itself. The data set can be described thus: SEC; size-exclusion chromatography of purified CcpA without Ag+.
Data set [6] concerns the molecule itself. The data set is described as follows: SEC; size-exclusion chromatography of purified CcpA pre-incubated with Ag+ (0.6, 1.2, 2.0 molar equivalents; CcpA^2CS with 2.0).

With “ACTCGTACCACCAGTCACTATAAAATGTTGTCCTTTCATCAATTAACCTTCCTTTTCAATTATATAGAATGCAATTTATCAACTTTACATAATTGAGACAAGTTGATTATCTTTCCTAATATATATACAATAATAAGAAAATATAACATACAAATCAAAAACTAAAGGGATGTGACGTTAATGAAACTCG (double strand) [proC probe]”, the binding entry in data set [1] was “no binding”.

As a reminder, the Kd is a measure of binding affinity in units of concentration. Low values mean tighter binding, high ones weaker binding. Turning to biotinylated pckA promoter probe, the Kd in data set [2] was found to be 20.7 nM; in data set [3] it was 16.1 nM; in data set [4], 15.1 nM.

B1: Staphylococcus aureus catabolite control protein A (CcpA), wild type (natural protein, UniProt Q5HF38 1-329, looked up)
chain: MTVTIYDVAREARVSMATVSRVVNGNQNVKAETKNKVNEVIKRLNYRPNAVARGLASKKTTTVGVIIPDISNIYYSQLARGLEDIATMYKYHSIISNSDNDPEKEKEIFNNLLSKQVDGIIFLGGTITEEMKELINQSSVPVVVSGTNGKDAHIASVNIDFTEAAKEITGELIEKGAKSFALVGGEHSKKAQEDVLEGLTEVLNKNGLQLGDTLNCSGAESYKEGVKAFAKMKGNLPDAILCISDEEAIGIMHSAMDAGIKVPEELQIISFNNTRLVEMVRPQLSSVIQPLYDIGAVGMRLLTKYMNDEKIEEPNVVLPHRIEYRGTTK
notes: catabolite control protein A (CcpA) of Staphylococcus aureus; has two cysteines, Cys216 and Cys242; Dimer by SEC without Ag+; written as the protomer for the rows of self-association; Host, tags and limits are in the ESI; also called SaCcpA; WT CcpA
As usually defined, the stoichiometry N is the number of molecules, sites or subunits per partner or assembly. In the case of B1, the entries for the “stoichiometry N” value in data set [5] and in data set [6] were 2 and 4, respectively.

B2: Staphylococcus aureus CcpA C242S mutant (natural protein)
chain: MTVTIYDVAREARVSMATVSRVVNGNQNVKAETKNKVNEVIKRLNYRPNAVARGLASKKTTTVGVIIPDISNIYYSQLARGLEDIATMYKYHSIISNSDNDPEKEKEIFNNLLSKQVDGIIFLGGTITEEMKELINQSSVPVVVSGTNGKDAHIASVNIDFTEAAKEITGELIEKGAKSFALVGGEHSKKAQEDVLEGLTEVLNKNGLQLGDTLNCSGAESYKEGVKAFAKMKGNLPDAILSISDEEAIGIMHSAMDAGIKVPEELQIISFNNTRLVEMVRPQLSSVIQPLYDIGAVGMRLLTKYMNDEKIEEPNVVLPHRIEYRGTTK
In the case of B2, in data set [6], the “stoichiometry N” value was 4.

B3: Staphylococcus aureus CcpA C216S mutant (natural protein)
chain: MTVTIYDVAREARVSMATVSRVVNGNQNVKAETKNKVNEVIKRLNYRPNAVARGLASKKTTTVGVIIPDISNIYYSQLARGLEDIATMYKYHSIISNSDNDPEKEKEIFNNLLSKQVDGIIFLGGTITEEMKELINQSSVPVVVSGTNGKDAHIASVNIDFTEAAKEITGELIEKGAKSFALVGGEHSKKAQEDVLEGLTEVLNKNGLQLGDTLNSSGAESYKEGVKAFAKMKGNLPDAILCISDEEAIGIMHSAMDAGIKVPEELQIISFNNTRLVEMVRPQLSSVIQPLYDIGAVGMRLLTKYMNDEKIEEPNVVLPHRIEYRGTTK
As to B3, the “stoichiometry N” value in data set [6] came to 4.
